# Data taken from patent US20220306753A1 (JN BIOSCIENCES, published 2022).
# T1: Human B7-1/CD80 Protein, Mouse IgG2a Tag (human, UniProt P33681 35-242)
# T1 construct: Bought protein coated on the ELISA plate; also called Cat. No. B71-H52A4, Acro Biosystems; not shown: mouse IgG2a tag of the bought protein
# T1 sequence (looked up): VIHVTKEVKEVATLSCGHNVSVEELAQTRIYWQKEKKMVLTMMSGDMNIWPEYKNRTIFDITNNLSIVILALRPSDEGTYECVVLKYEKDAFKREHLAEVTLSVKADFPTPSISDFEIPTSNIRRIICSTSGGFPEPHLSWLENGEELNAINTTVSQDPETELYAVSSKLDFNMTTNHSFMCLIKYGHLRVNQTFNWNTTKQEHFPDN
# T2: Human B7-2/CD86 Protein, Fc Tag (human, UniProt P42081 24-247)
# T2 construct: Bought protein coated on the ELISA plate; also called Cat. No. CD6-H5257, Acro Biosystems; not shown: Fc tag of the bought protein
# T2 sequence (looked up): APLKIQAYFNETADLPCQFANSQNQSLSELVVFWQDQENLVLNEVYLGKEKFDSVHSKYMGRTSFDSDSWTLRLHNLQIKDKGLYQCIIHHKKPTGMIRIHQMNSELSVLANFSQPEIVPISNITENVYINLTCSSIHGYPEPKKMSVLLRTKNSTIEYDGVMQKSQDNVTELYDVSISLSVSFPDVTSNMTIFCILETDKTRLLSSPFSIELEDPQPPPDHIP
# T3: Human IL-2R beta/CD122 Protein, Fc Tag (human, UniProt P14784 27-239)
# T3 construct: Bought protein coated on the ELISA plate; also called Cat. No. ILB-H5253, Acro Biosystems; not shown: Fc tag of the bought protein
# T3 sequence (looked up): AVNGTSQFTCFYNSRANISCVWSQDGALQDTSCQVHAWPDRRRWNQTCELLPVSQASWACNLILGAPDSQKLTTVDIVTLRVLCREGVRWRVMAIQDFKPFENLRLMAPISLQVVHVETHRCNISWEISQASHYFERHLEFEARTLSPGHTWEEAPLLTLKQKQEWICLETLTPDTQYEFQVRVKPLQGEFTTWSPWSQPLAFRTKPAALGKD
# Columns and labels:
# [1] = biological target: T1, Human B7-1/CD80 Protein, Mouse IgG2a Tag; experiment: ELISA, plate coated with 1 µg/ml CD80 mouse IgG2a tag protein, anti-human kappa-HRP detection
# Experimental: (§1) Binding of HuABC2-CTLA4 and HuABC2-CTLA4YE to human CD122, CD80 and CD86 was analyzed by ELISA. Wells of an ELISA plate were coated with 1 μg/ml of either CD122 (Human IL-2R beta/CD122 Protein, Fc Tag; Cat. No. ILB-H5253, Acro Biosystems, Newark, Del.), CD80 (Human B7-1/CD80 Protein, Mouse IgG2a Tag; Cat. No. B71-H52A4, Acro Biosystems) or CD86 (Human B7-2/CD86 Protein, Fc Tag; Cat. No. CD6-H5257, Acro Biosystems) in PBS. After blocking with Blocking Buffer and washing the wells with Wash Buffer, transiently expressed HuABC2-CTLA4 and HuABC2-CTLA4YE at 0.5 μg/ml and serial 2-fold dilutions in ELISA Buffer were applied to the wells in duplicates. Purified HuABC2 at 0.5 μg/mland serial 2-fold dilutions was used as a control. After incubation for 1 hr at room temperature and washing with Wash Buffer, bound antibodies were detected using HRP-conjugated goat anti-human kappa chain polyclonal antibody. After incubation for 30 min and washing with Wash Buffer, color development was initiated by adding ABTS substrate and stopped with 2% oxalic acid. Absorbance was read at 405 nm.
# [2] = biological target: T2, Human B7-2/CD86 Protein, Fc Tag; experiment: ELISA, plate coated with 1 µg/ml CD86 Fc tag protein, anti-human kappa-HRP detection
# Experimental: as §1
# [3] = biological target: T3, Human IL-2R beta/CD122 Protein, Fc Tag; experiment: ELISA, plate coated with 1 µg/ml CD122 Fc tag protein, binder from 0.5 µg/ml in 2-fold dilutions, anti-human kappa-HRP
# Experimental: as §1
binder,measurement,setting,value
"HuABC2 (antibody, human IgG1, kappa, V domains shown, Human IgG1/kappa, wild-type Fc, expressed from pHuABC2p in CHO-K1 and purified on protein A; also called humanized anti-CD122 IgG1/kappa monoclonal antibody) VH: EVQLVESGGGLVQPGGSLRLSCAASGFTFSDFYMEWVRQAPGKGLEWIAASRNKANDYTTEYSASVKGRFIVSRDDSKNSLYLQMNSLKTEDTAVYYCARSYYRYDGMDYWGQGTTVTVSS VL: EIVLTQSPATLSLSPGERATLSCSAISSVSYMYWYQQKPGQAPRLLIYDTSNLVSGVPARFSGSGSGTDYTLTISSLEPEDFAVYYCQQWNTYPYTFGGGTKVEIKR",binding result,[1],no binding (tested: 0.5 µg/ml and serial 2-fold dilutions)
same,binding result,[2],no binding (tested: 0.5 µg/ml and serial 2-fold dilutions)
same,binding result,[3],binds
